# Experiment: soluble on expression in E. coli; label from the status in PepcDB or PDB records
row,Sequence,soluble on expression in E. coli
1,MPVLTSGQQERKSKQRKIRNSEYYDMEGTFDRLYAESKKDKTFNHLMEIIESEENIKLAYRTIKKNTGSDTSGVDKRTIADLAKLSEEEYVRLIRKQFSNYHPGPVRRVEIPKPNGKTRPLGIPTIVDRIVQQCILQVMEPICEAKFSENSNGFRPNRSAETAIAQCMRLIQVQHLYHVVDLDIKGFFDNISHTKLIRQIWALGIRDKKLLCIIKEMLKAPVVLPNGEKTYPARGTPQGGILSPLLANIVLNELDWWIASQWEEMPTKTKFKTRSNAQGTEIKSHAYRALRRSRLKEMHAVRYADDFKIFCATHEDAVRAYKATELWLKDRLGLEISPDKSKVVNLKRQYSDFLGFKLKVRKKGKKYVVRSHMSDKAYKKAHEKVSEEVKKLAYSSDDNAQFMQLQKYNSVVAGLHEYYCISTEVSHDFSRLAFSINKQLRNRLKGDLSKKGQLRNGFIKEKYGASRQMRFLHGRPVVPLGYVQSKNAQHKRKSINKYTVKGREQIHKNLAIDTATMLWLMRNPVKGRTIEYADNRISLYAAQYGKCAVTGIPMNSHDIHCHHKVPVSNGGSDEYANLILVSKAVHILIHASSEPTIEKYLKSLNLDNKQIEKLNKLRSMAEMPPIIL,not soluble
2,MAHHHHHHMRTHKTHAYIQAHCLCDFYLTYCAGWVGAIKADGSGQPREPSNGVFGCVRDYIFHQMLDAVHGSSKVFFCDAHAAAVLNCSLRLHDLMERGVTLLEDLMAPRQPIMSSFTPYFFAVEDACVSCVVEDWMAKVPYRDVHIFALGCAPHRSPQQLPRSRIAPRVMRFKEMMLDFTATEALVFHPNMQNGLPQLLSPLSPPT,not soluble
3,GQRELTLFVHGFNSTQTETAYRAAQLAHDIEMPGSLMVYSWPSKGHALGYAYDADSTVFARDGLETVLRRLGEQRIDRLAVVAHSMGSFLLMEALRQIEIATPGWSARHLDGVILISPDLDLDVFRSQMRRIKTVPQPFVVMASEKDNVLNLSRHLRGKQSSERLGQIGSAALITDLPVAVIDTSQFSDEAESGHFIAATSPTLLAMIAEARNMTDLFEAGNVPL,not soluble
4,MPASEQGFWRGMETCGWGGGSYILYAWARNAPNLVLPKDVAFSVGHEQDGIKYFVLQVHYAQPFAGEVHDFSGVTMHISQKKPMNLAAVMLFVSGTPIPPQLPAFQNNITCMFESSTPIHPFAFRTHTHAMGRLVSAFFKHDGHWTKIGKRNPQWPQLFEGIPSKLMIGSGDQMSASCRFDSMDKNRTVNMGAMGVDEMCNFYMMFHYDAKLDNPYPQGAICAKDYPSKMIDYPKDGFELLPSRPELEHHAHQSKVPFGIVQEAIHENLGGVKLGQVAGLAFNNEQQLLVFQRAGRVWDASTFDNYNILLDKKPIADPVILVISYSGNQTKLERKLGGGQFYLPHGIYVDKDGFVYTTDVGSHTVAKWKIEGNELKNIWTSGELLMPGSDQHHYCKPTGITRVEDQLYVTDGYCNSRVVVLDLNGKRIRQFGLPGEDAGQFNLPHDIVSDSAGRLLVTDRENGRVQHMTTQGHVIEEFKSTMFTNIYSAASHEDYVFMVPGRPIMGHETEGIAVFVGRSGTGLIEYAFGPTTKGKREQMGPQFGQPHCLRVCPDGGHIFVGDIAEGKARLWQFKVNLLEMCGSKYDMIKIKLMILP,not soluble
5,MVPRTSSSNPTLRKTSPTMADIDITRSHSLGLDDGRAAVGRVADKLETELGVDAEWTGDTLQFSGQGADGHIEVEADAVHVAINLSAFLQPMRSRVQAEAEDYLDQSLQSQS,not soluble
6,MTTLTAQQIACVYAWLAQLFSRELDDEQLTQIASAQMAEWFSLLKSEPPLTAAVNELENRIATLTVRDDARLELAADFCGLFLMTDKQAALPYASAYKQDEQEIKRLLVEAGMETSGNFNEPADHLAIYLELLSHLHFSLGEGTVPARRIDSLRQKTLTALWQWLPEFVARCRQYDSFGFYAALSQLLLVLVECDHQNR,soluble
7,MDIWYGTAAVPKDLDNSAVTIGVFDGVHRGHQKLINATVEKAREVGAKAIMVTFDPHPVSVFLPRRAPLGITTLAERFALAESFGIDGVLVIDFTRELSGTSPEKYVEFLLEDTLHASHVVVGANFTFGENAAGTADSLRQICQSRLTVDVIDLLDDEGVRISSTTVREFLSEGDVARANWALGRHFYVTGPVVRGAGRGGKELGFPTANQYFHDTVALPADGVYAGWLTILPTEAPVSGNMEPEVAYAAAISVGTNPTFGDEQRSVESFVLDRDADLYGHDVKVEFVDHVRAMEKFDSVEQLLEVMAKDVQKTRTLLAQDVQAHKMAPETYFLQAES,soluble
8,SLALPADPIQRCLDIRRLVDITSRQKMAAKEPGVLRFKFHKISASELPLDNPVGNMDEVIQALNNQIENCNNSYGEFQTVTIAGHQFKRQEWCLNTNKKMLTLAKAAHGDFKKFLSSIKTEFDWYKSDGWPENHAGFKKGEFQFTAYYAPAAVEARSERGGAFLYPLYSNPGVVSVALESKKYNLKTPLCGVDPLSKVMRGFCLKNADGTYSVAPDREEIEHGALNPKYIIGYLKDPNDSAFLMLQGSGSLLLDGKLFHINYDGANGRPRTMLGRIVQCAQDPTCGGNLDTMERCAKDPKCHDEAKLRCNVSKKIRQSAASEKLIRQYLNNLTPDKADNLRNRDQSYVFFAKEDGGPYGSENISLTPHV,not soluble
9,LALYRCAADVQAALDYYFDSETEREDTLEAVIGQFEVKAQSVIAYIKNQEITEKMLEGHIRRMTGKLKAVKAQNQSLKDYLARNMQAAGITEIKADDGTFKASFRKSEAVVILDEAQIPAEFMREAVKTEPDKTAIRKAIESGRQVAGAKIEGRKNLQIR,not soluble
10,MSLSTIAIFGSYVLSRKDGAQDVLRDHWVLVEGKKIAAVTRDRPRADEVYDRPGRFVLPGLLNLHNHCFSEAVARSHSEDGTGRKNNQSIVYTVLLPLTKRGADILSAEERMAVARLGILQLLKGGATTVMEPFRNSIPEMFDAAEEMGIRFYGAPYLFSTSDAKAGPDGVVQYSGDDGTADMATWDALYQRWNNRGDGRISLAMSPHATDTCGPDLLKACAARARELGVPITTHMAQSRAEVETIGKRYGGRTPAQYLDWLGLLAPDLMAAHCMFSTDDDLKLMAARGMTVLNCPRVFARAGVTAAFSRFAEHGVRTVVGTDGYNMDLLGELNAASLISKITSQRADVANSPELIEANTAVAADVIKRPDLGRIEPGATADLTVVDLTHPHLQPLFDPRRALIALANRANIDQVMVDGRVLVDGGRYLGADEAAITAAGSAAIGKIWDLPEAQAAFNGEGHHHHHH,soluble
11,MIVLNCIRYLGMTDINEIGRLTLYEYDLLMTGKALAAVDESHKAHKQAWINHQVTATKLVGGKKNKKEVPVYKKFKDFFDYEEEIRKITQEIDEGYDKKGMDLLLKANL,not soluble
12,MHHHHHHSSGVDLGTENLYFQSMRLLRASGRTPEAVQKLLEQGLRHSQDLAFLSMLNDIAAVPATAMPFRGYAVLGGERGGPEVQQVPAGERPLWFICSGMGTQWRGMGLSLMRLDRFRDSILRSDEAVKPFGLKVSQLLLSTDESTFDDIVHSFVSLTAIQIGLIDLLSCMGLRPDGIVGHSLGEVACGYADGCLSQEEAVLAAYWRGQCIKEAHLPPGAMAAVGLSWEECKQRCPPGVVPACHNSKDTVTISGPQAPVFEFVEQLRKEGVFAKEVRTGGMAFHSYFMEAIAPPLLQELKKVIREPKPRSARWLSTSIPEAQWHSSLARTSSAEYNVNNLVSPVLFQEALWHVPEHAVVLEIAPHALLQAVLKRGLKPSCTIIPLMKKDHRDNLEFFLAGIGRLHLSGIDANPNALFPPVEFPAPRGTPLIS,soluble
13,GHMSAHVQQDKYETNVSYKKLNQLAPYFKGFDGSFVLYNEREQAYSIYNEPESKQRYSPNSTYKIYLALMAFDQNLLSLNHTEQQWDKHQYPFKEWNQDQNLNSSMKYSVNWYYENLNKHLRQDEVKSYLDLIEYGNEEISGNENYWNESSLKISAIEQVNLLKNMKQHNMHFDNKAIEKVENSMTLKQKDTYKYVGKTGTGIVNHKEANGWFVGYVETKDNTYYFATHLKGEDNANGEKAQQISERILKEMELI,soluble
14,MADDGLGDVPMETESMPQYTISHVIEAHKSDTKALAVTQGGCLISGGRDETVKFWAKKGKQYTKTHAFEQPKGITVNSIAYAELADGWRLFVGRRDGTIAVFGPSQAEPYAIFNEHKQNVCCLHINEKATHMLSGSWDSNVIIWPITELNSSSFTTIVCPGHTLSVWALASFPDLPNTYLSASADKTIRMWFGDTTLSVFKGHTDVVRALVVLSSSHFLSAGNDGHIIHWDVASASILRKFATQAHEFIYSMTLSDSHILTTGEDGTLEFWAIDGGKDGNLAIVSEAVIQLPTTNTWDAKVLLNSDIAVAGSDGRIYIMTTDKNRKADDDILDAFDAEVVAKLTAKTERMKQEEHETVTIKVDIDDRPTQLNLKYKKGTDPGLCAQEFLSENNLPIHYLEEITRFIKDRIPEARAFDLKSGKKVIVDGKEYDYALGVNFGKGEPDKQMPFNVNESPQFAAQRFVERHQLPVSVIPSLAGMISQEMDKLSKGAASAQSGYEDPFTGPGRYVPQGSSNSGGHGADPFTGSGRYVPQASNSSGFDTGFSGDPLTGDGGYRASAPENTGSHAVPLSSLPQNKKKPRGPLVPVPDFYIIGLAGKGEKAIAKLKELNEKQDAFQLNPDQINGLEELFVLPTSSNYSSEVTQSAFEMSLQWPVEHLTPVLDFLRIALTHHSLNSYFCDRERGQELVGRLIAILVSDPADVALKVLVCRCIANAFSHPVGRNLFASTELSTLAPLVVRQVLNEKTVLQMSAATALANWSLALLQQSEQCEQLGPKEDLLRAILNGIESVDSFGYLGEDAIIRLLQALVTVMWGDASVIRLAKNRNIAQIAARLKDAVSNDSGKNIARDIVEMTYAV,not soluble
15,MTENFFGKTLAARPVEAIPGMLEFDIPVHGDNRGWFKENFQKEKMLPLGFPESFFAEGKLQNNVSFSRKNVLRGLHAEPWDKYISVADGGKVLGTWVDLREGETFGNTYQTVIDASKSIFVPRGVANGFQVLSDFVAYSYLVNDYWALELKPKYAFVNYADPSLDIKWENLEEAEVSEADENHPFLKDVKPLRKEDL,soluble
16,MIVHVVKRGETLWQLAQRYGVPLERIVAANELSDPNRLAVGQALVIPVPYRYHTVRTGETLWQIARQYGVAVEAIIQANRITNPSLLYPGTTLFIPARIHTVRSGETLAQIASFYGVTVQQLIEVNDITDPNRIVPGQRLIIPPAKPLIEVNAFTVDQGEKGAEQVREVGRHLTYAAPFAYTIRADGGLNPINDTAFIQAAYAARVVPMMTITNFTYQDPGSRLAQMILADVALQTRLLDNVIQVMRAKGYRTLNVDFENVYPSDRKRYNEFLQRAANRLHAEGYVLSTSLAPKISAEQKGLLYEAHDYPAHGRIADFVVLMTYEWGYRFGPPQAISPVNQIRRVLDYAVTAIPRSKIMMGFQIYARDWVLPHVQGQEAETFSPKEALERAVRYGASIQYDAAAASPFYRYTDEQGRQHEVWFEDARSALAKFELVKEYGLRGISYWVLGYPYPENWVLLEDNFRIRKRG,not soluble
17,MGSDKIHHHHHHMNEFIASIKSATASLHTQLEQSEISNVIMSQLVTEKAYAEYLSRIQCMHEDIEKHTFPIIHTIIKDTAQRTKSTAIAADLDQLKYASAVNKTFLDAAHSPDLNFNLGLMYVTEGSVLGGQVILKNIKKQLGEDIASRFLNVYGQQTGHLWRSFLIQLSEYQSTLSEKEKMTIIDGAKYGFERVYSILM,not soluble
18,MSLKITGFRSLTTVHRWGRPVGDANGFVAQGVTEVPVLLVETDGGLTGVGLGAHGDAERVFPALDGQDPRAVTTLYDRMLAHTFKSGHAGTAFGTIGAFDTALWDLKAKMAGEPLWRTLGAADRFVPGYASGLDIALDEEELVALYSGWAARGFTGAKLKGGLDTERDIGRLRAVAEVLRPNTRSPALMLDVNESWGRHQAVRLLARIEDRVELAWIEEPVRRWDARGHRAVGRAGRTAVASGENLTGLEQFRPLLAADALQVVQAAGVWGITHFLRVATLAHGHDLPVSPVGYHANPLAHAAAAVPNHLVTEVQDIGTPAGLTVDQAIEDGGIVLGDAPGLGITVDESALAAPRQNAGWARPDGPHVRPRDAGLRLVPEPGPPGPAARVRAGTPSLGVPGPVHRPARSEHTERENTPEGHHHHHH,not soluble
